Holding throughout (assay): cell_activity
Series [1] has as its system ZFN 23950 (synthetic construct). The following applies: Cel-I assay; as pair 23950/22529.
The subject of series [2] is ZFN 23966 (synthetic construct). The following applies: Cel-I assay; as pair 23966/23974.
Series [3] has as its system ZFN 22524 (synthetic construct). As to conditions: Cel-I assay; as pair 22524/23947; pair also used for in vivo Q344X correction in mouse retina.
Series [4] concerns ZFN 23974 (synthetic construct). As to conditions: Cel-I assay; as pair 23966/23974.
In series [5] the test system is ZFN 23947 (synthetic construct). The following applies: Cel-I assay; as pair 22524/23947; pair also used for in vivo Q344X correction in mouse retina.
The test system of series [6] is ZFN 22529 (synthetic construct). The following applies: Cel-I assay; as pair 23950/22529.

Sequence “GCCAGGTAGTACTGTGGGTACTCGAAGG (double strand) [RHO exon 1 site for 23950]” showed an activity in series [1] of 8.7 % NHEJ. Turning to “GGGGAGACAGGGCAAGGCTGGCAGAGAG (double strand) [RHO intron 1 site for 23966]”, the activity in series [2] was determined as 9.3 % NHEJ. Consider “CAGTGGGTTCTTGCCGCAGCAGATGGTG (double strand) [RHO exon 5 site for 22524]”, for which, in series [3], the activity was found to be 11.5 % NHEJ. On to “ATGTCCAGGCTGCTGCCTCGGTCCCATT (double strand) [RHO intron 1 site for 23974]”, for which the activity in series [4] is 9.3 % NHEJ.

In turn, “GTGACGATGAGGCCTCTGCTACCGTGTC (double strand) [RHO exon 5 site for 23947]” returned an activity in series [5] of 11.5 % NHEJ.

For “GAGCCATGGCAGTTCTCCATGCTGGCCG (double strand) [RHO exon 1 site for 22529]”, the activity in series [6] was 8.7 % NHEJ.

These data come from patent US20120204282.
